Laboratory results from PMC10666276 (Biochemistry, 2023).

Tests used:
[1] = tested on: NC(=O)c1ccc[n+]([C@@H]2O[C@H](COP(=O)(O)OP(=O)(O)OC[C@H]3O[C@@H](n4cnc5c4ncn4ccnc54)[C@H](O)[C@@H]3O)[C@@H](O)[C@H]2O)c1; test: purified protein; conditions: 50 mM sodium acetate pH 5.5, 150 mM NaCl, 500 μM CaCl2, 25 °C, 10 ng enzyme
Description: fluorometric hydrolysis assay, Michaelis-Menten fit on AfNADase

[2] = molecular target: AfNADase^D219A/E220A (Aspergillus fumigatus) (UniProt Q4WL81); test: crystal structure
SEC = molecular target: the molecule itself; test: SEC

In the case of AfNADase (Aspergillus fumigatus Af293), the Km [1] is reported as 54.8 ± 15.3 µM and the Vmax [1] is reported as 4570 µmol/min/mg.

Molecule “AfNADase^D219A/E220A (from UniProt Q4WL81) (enzyme)” has a stoichiometry N [2] of 2.

B1: Aspergillus fumigatus NADase (AfNADase), wild type (enzyme)
chain: LQHTEDSLFPARCWPDPCAGITFQNDTYVCGDPRLGPVVLPQKFPLNNELRTYARFGALCPAEFLDKWATDVAPNGTYIYPPANGFALDTEEQPILGNATLPVGMKLDRFGSEYGTFLAPLGAPYIERSLPPSNLNTFDGMYPYNYHVYQVTKEFVVGLGPIAPWFEQPGMGTQFVTYTNVLGLIDDGYLRRLDESEYDEKVEYSNPYTPGPNQ
modifications: N-linked glycosylation sites (as observed in the wild-type structure 6YGE)
B1: binds (SEC).
